Laboratory results published in article PMC12055985.

Molecular target: gH/gL expressed on the surface of CHO-K1 cells (UniProt P89445)
Test: ELISA

gH/gL expressed on the surface of CHO-K1 cells, sequence (P89445 19-838, chain 1 of 2): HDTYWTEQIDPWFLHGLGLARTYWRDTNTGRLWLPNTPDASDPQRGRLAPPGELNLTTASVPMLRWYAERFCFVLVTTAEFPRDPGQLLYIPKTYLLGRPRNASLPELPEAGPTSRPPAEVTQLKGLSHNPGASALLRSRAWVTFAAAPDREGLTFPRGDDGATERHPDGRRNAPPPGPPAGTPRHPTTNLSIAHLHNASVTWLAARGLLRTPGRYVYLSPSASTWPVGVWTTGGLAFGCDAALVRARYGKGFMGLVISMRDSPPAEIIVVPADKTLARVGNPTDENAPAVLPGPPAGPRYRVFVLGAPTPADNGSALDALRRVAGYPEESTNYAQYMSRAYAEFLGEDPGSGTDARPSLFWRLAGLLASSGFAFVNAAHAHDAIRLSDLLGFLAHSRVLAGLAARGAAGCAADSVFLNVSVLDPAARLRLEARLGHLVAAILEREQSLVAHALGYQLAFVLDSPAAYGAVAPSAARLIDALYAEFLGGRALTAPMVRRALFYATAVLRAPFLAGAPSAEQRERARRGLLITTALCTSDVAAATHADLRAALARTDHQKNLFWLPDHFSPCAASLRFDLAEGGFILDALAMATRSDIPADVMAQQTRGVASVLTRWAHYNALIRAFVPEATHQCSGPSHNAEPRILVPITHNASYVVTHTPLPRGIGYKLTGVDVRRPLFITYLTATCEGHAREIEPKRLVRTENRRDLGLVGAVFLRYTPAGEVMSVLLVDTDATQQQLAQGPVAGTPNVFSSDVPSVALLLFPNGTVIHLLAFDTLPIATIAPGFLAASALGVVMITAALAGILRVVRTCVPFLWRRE
gH/gL expressed on the surface of CHO-K1 cells, sequence (P28278 17-224, chain 2 of 2, further chain): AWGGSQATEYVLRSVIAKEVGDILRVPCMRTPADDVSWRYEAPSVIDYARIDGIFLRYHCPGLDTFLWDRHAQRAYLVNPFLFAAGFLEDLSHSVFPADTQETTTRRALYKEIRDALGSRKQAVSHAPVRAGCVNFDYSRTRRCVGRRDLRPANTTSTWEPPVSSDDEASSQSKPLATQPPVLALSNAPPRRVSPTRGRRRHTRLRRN

HSV-2 gD (aa1-275) with C-terminal His tag (domain or fragment)
EC50: 1.28 µM
